# Assay results taken from patent publication US20180371461, “[…], NUCLEIC ACID MOLECULES, POLYNUCLEOTIDES, […] ANTIBODIES COMPOSITIONS FOR […] PRRS VIRUSES AND […] PRRS VIRUS INFECTION” (AEROVIRUS TECHNOLOGIES INC., published 2018).
# T1: PRRSV type 2 M(1-16)-S-S-GP5(31-61) disulfide-linked heterodimer peptide complex (Porcine reproductive and respiratory …)
# T1 chain 1: MGSSLDDFCHDSTAPQ
# T1 chain 2: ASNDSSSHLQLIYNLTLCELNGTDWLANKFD
# T2: PRRSV type 1 (Lelystad) M-S-S-GP5 disulfide-linked heterodimer peptide complex (Porcine reproductive and respiratory …, UniProt Q04565;Q04569)
# T2 chain 1: MGGLDDFCNDPIAAQ
# T2 chain 2: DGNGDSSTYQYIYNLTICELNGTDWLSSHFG
# B1: A505 (CoocSeq5) (ssDNA)
# DNA: GGGCGACCCTGAAGAGTTTGTAATCTGCGATTTTAAAGTTGAGTCGTCGCGAAACGGTGAAAGCCGTAGGTTGCCC
# B2: A507 (CoocSeq7_HistoSeq14) (ssDNA)
# DNA: GGGCGACCCTGAAGAGGTTTGCATATTATAGTTATAGGAGGTGTGTAATGGACGAAACGGTGAAAGCCGTAGGTTGCCC
# B3: A508 (CoocSeq8) (ssDNA)
# DNA: GGGCGACCCTGAAGAGACTGGTGAGTTAATGTTTTTTCTTAGCCTTGTATCGAAACGGTGAAAGCCGTAGGTTGCCC
# B4: PEU-499 (ssDNA)
# DNA: GGGCGACCCTGAAGAGTACACACGGGACACACACACACTCACTAGACGAAACGGTGAAAGCCGTAGGTTGCCC
# B5: PEU-842 (ssDNA)
# DNA: GGGCGACCCTGAAGAGGACCAGAAGCACGGACCACACACAGCGTATCGAAACGGTGAAAGCCGTAGGTTGCCC
# B6: PEU-852 (ssDNA)
# DNA: GGGCGACCCTGAAGAGGACACTGCACGTACACAACGAGGATGAACACGAAACGGTGAAAGCCGTAGGTTGCCC
# B7: PEU-424 (ssDNA)
# DNA: GGGCGACCCTGAAGAGGATGTTGATAGAGCGCCGACCACACACGCACGAAACGGTGAAAGCCGTAGGTTGCCC
# B8: PEU-962 (ssDNA)
# DNA: GGGCGACCCTGAAGAGGATAGACAATAGCACACCACGCCCCTGCCACGAAACGGTGAAAGCCGTAGGTTGCCC
# Key:
# [1] = tested on: PRRSV LHVA-93-3 virion, M/GP5 surface complex (Porcine reproductive and respiratory syndrome virus type 2); experiment: cell_activity; settings: protection of MARC-145 cells, 500 pmole aptamer, MTT assay; also reduces lung titre in swine
# [2] = tested on: PRRSV NVSL virion, M/GP5 surface complex (Porcine reproductive and respiratory syndrome virus type 2); experiment: cell_activity; settings: protection of MARC-145 cells, 500 pmole aptamer, MTT assay
# [3] = target: T1, PRRSV type 2 M(1-16)-S-S-GP5(31-61) …; experiment: ELONA; streptavidin plate, PBS-T, 37 C; settings: protein: synthetic, tags: His-labelled (Ni-NTA captured), synthetic glycosylated peptide complex, disulfide M Cys9-GP5 Cys48
# [4] = target: T2, PRRSV type 1 (Lelystad) M-S-S-GP5 …; experiment: ELONA; type 1 complex; settings: protein: synthetic
# [5] = label: biotin (reverse screening ELISA)
Molecule,binding result [4],further results
GGGCGACCCTGAAGAGTTTGTAATCTGCGATTTTAAAGTTGAGTCGTCGCGAAACGGTGAAAGCCGTAGGTTGCCC [A505 (CoocSeq5)],,activity [1]: 60%; activity [2]: 70%
B1,,binding result ([3]; label: 5' biotin (reverse screening ELISA)): binds
B2,,"binding result [3, 5]: binds"
B3,,"binding result [3, 5]: binds"
B4,binds,
B5,binds,
B6,binds,
B7,binds,
B8,binds,
